In paper PMC6737914, “Dissection of GTPase-activating proteins reveals functional asymmetry in the COPI coat of budding yeast” (Journal of Cell Science, 2019):

Target: T1, TAP-purified coatomer (TAP-tagged β′-COP) (S. cerevisiae, UniProt P53622 1-1201; P41811 1-889; P40509 1-296; P41810 1-973; P32074 1-935; P43621 …)
T1 construct: α-COP subunit of coatomer, S. cerevisiae; β′-COP subunit of coatomer, S. cerevisiae, TAP-tagged; ε-COP subunit of coatomer, S. cerevisiae; β-COP subunit of coatomer, S. cerevisiae; γ-COP subunit of coatomer, S. cerevisiae; δ-COP subunit of coatomer, S. cerevisiae; ζ-COP subunit of coatomer, S. cerevisiae; The complex was released by TEV cleavage after the incubation with Glo3; also called …
Assay: pull-down; TAP-immobilised COPI incubated with a molar excess of MBP-Glo3 (ΔAmpH) for 20 min at 4°C, washed, eluted by TEV cleavage; Coomassie staining and western blots
Conditions: both partners purified

- binding result: binds
B1: MBP-Glo3 (ΔAmpH), Glo3 (1–459) lacking its distal amphipathic helix (domain or fragment)
chain: not shown
notes: Glo3, S. cerevisiae, residues 1-459, without the distal amphipathic helix (printed as 459–493); After TEV elution of the complex the eluates were incubated with amylose resin to deplete MBP; also called Glo3 lacking a C-terminal amphipathic helix; source: E. coli Rosetta (DE3) or BL21 (pREP4), purified (Ni-IDA resin), dialysed
